# Experimental data published in publication PMC1182371.
# Target: KLF15-ZF-GST (human) (UniProt Q9UIH9)
# Assay: DNase I footprinting
# Conditions: EMSA: 4 mM HEPES, 5 mM EGTA, 100 mM KCl, 0.25 mM ZnCl2, 0.02% NP40, 0.1 M DTT, 4% glycerol, 90-120 min on ice, pH not stated, footprinting: same buffer
# KLF15-ZF-GST (human), sequence (Q9UIH9 294-416): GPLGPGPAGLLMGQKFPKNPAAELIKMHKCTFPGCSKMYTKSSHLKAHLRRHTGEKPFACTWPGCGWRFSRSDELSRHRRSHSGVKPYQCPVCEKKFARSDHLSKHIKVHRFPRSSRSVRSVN
sequence,measurement,value
GAAGTGACCTCCCCTCCCTAAGCTCCCGGCTGAATCAGCACCTCGGAGATTGGGGGCGTTATTAATCATATTAATCCTCACTGCTGCAACGAGGGGCTTAATTGGCTTCCAGGTGGGGCCAAGGTGACTCCAGGTAGAAGGCTGTGGTCGGGGAGAAGGCGGGGCGTGCTGGGGACCCTGGGAAAGAGCAGAGGCCTGCCCCCAACTCCCCTGTCCCCCTCTGGCATCTCAGCTGATGGCCCTGGCCTGGCATTGGGACCCCTAGCTCTAGGCCCACTTCCCTCT (double strand) [bovine Rho -315 to -31],binding,binds
CGCCGGCGGCGCGAACCCGGGGATGCTTCTGAGGCCGGAGCTCAGCCACACGGGGCTCCGGCTGGACGACTCGTGGCTCCAACTCCCCCCCCAGGCCCTTATGAAGTGACCTCCCCTCCCTAAGCTCCCGGCTGAATCAGCACCTCGGAGATTGGGGGCGTTATTAATCATATTAATCCTCACTGCTGCAACGAGGGGCTTAATTGGCTTCCAGGTGGGGCCAAGGTGACTCCAGGTAGAAGGCTGTGGTCGGGGAGAAGGCGGGGCGTGCTGGGGACCCTGGGAAAGAGCAGAGGCCT (double strand) [bovine Rho -225 to +70],binding,binds
